Test results published in the DeepSol protein solubility set.

assay: soluble on expression in E. coli; label from the status in PepcDB or PDB records

Sequence | soluble on expression in E. coli
DEEDANFMQRAFEMNDKVASDVMVDRTSMSVVDVDETIADALLLYLEEQYSRFPVTADNDKDKIIGYAYNYDIVRQARIDDKAKISTIMRDIVSVPENMKVPDVMEEMSAHRVPMAIVIDEYGGTSGIITDKDVYEELFGNLRDEQDDED | soluble
DFVHIMTPYLILDGELLHALKFAAERGVDVIIIMPGIPDKKSAYYLAKTYYPTLLASGVKIYEYTPGFIHAKVFVSDNSRAVVGTINLDYRSLYHHFECATYLYGTSSVLDIEEDFQATKDQCHRVSTTDVKNLPFYQKTLGLLARLVAP | not soluble
DGSCTNTNSQLSANSKCEKSTLTNCYVDKSEVYGTTCTGSRFDGVTITTSTSTGSRISGPGCKISTCIITGGVPAPSAACKISGCTFSAN | soluble
DIALTQPASVSGSPGQSITISCTGTSSDVGSNNYVSWYQQHPGKAPKLMIYGGSNRPSGVSNRFSGSKSGNTASLTISGLQAEDEADYYCRSWDSNLSYSVFGGGTKLTVLGQPKAAPSVTLFPPSSEELQANKATLVCLISDFYPGAVTVAWKADSSPVKAGVETTTPSKQSNNKYAASSYLSLTPEQWKSHRSYSCQVTHEGSTVEKTVAPTEA | soluble
DIGCYTLGALPPFREQDSATNMGSSLGISNGVFRSTDQVPVAVIGDSTFFHSGIEGVANAVYNNTAEIIVVLDNRSTAMTGQQPSPSTAIDIGNVCRAMGIEYVETFDPFDVDAGEKAVQQAAEYVKKTLKPAVIIAKRACALEVLEKVDSETPKAYVDSNRCT | not soluble
DIGCYTLGINKPLEGVDITICMGASVGVSNGLAHVLNNKIIATIGDSTFIHAGIPPLINAVYNHADFVLVILDNSTTGMTGHQPHPGTGFRGCGEAGKAVRIEDIVRGCGVEFVEVVNPYNVRKMVDVLRRALNHDGVAVVIARQPCAILWSRARRREGKIVTYKVTEDC | not soluble
DIGVWEYFPATDSLDWSDGVRRIHGVADEYEPSLDDALGFYHPDDRDKISKAVEQTIADREPYDIDLRIVRTDGDVRDVRAWGERVDDPQ | not soluble
DIQALALLEILDPIREGAAETLDYLRSQEVGLKIISGDNPVTVSSIAQKAGFADYHSYVDCSKITDEELMAMAEETAIFGRVSPHQKKLIIQTLKKAGHTTAMTGDGVNDILALREADCSIVMAEGDPATRQIANLVLLNSDFNDVPE | not soluble
DIQMTQSPASLSASVGETVTITCRASGNIHNYLAWYQQKQGKSPQLLVYYTTTLADGVPSRFSGSGSGTQYSLKINSLQPEDFGSYYCQHFWSTPRTFGGGTKLEIKRADAAPTVSIFPPSSEQLTSGGASVVCFLNNFYPKDINVKWKIDGSERQNGVLNSWTDQDSKDSTYSMSSTLTLTKDEYERHNSYTCEATHKTSTSPIVKSFNRNEC | soluble
DIQMTQSPSSLSASVGDRVTITCRTSGNIHNYLTWYQQKPGKAPQLLIYNAKTLADGVPSRFSGSGSGTQFTLTISSLQPEDFANYYCQHFWSLPFTFGQGTKVEIKRTGGGGSGGGGSGGGGSGGGGSEVQLVESGGGLVQPGGSLRLSCAASGFDFSRYDMSWVRQAPGKRLEWVAYISSGGGSTYFPDTVKGRFTISRDNAKNTLYLQMNSLRAEDTAVYYCARQNKKLTWFDYWGQGTLVTVSSHHHHHH | soluble
DITERHAREQKLREERAVIQQALDALDEPLFVTDIDGRLKHCNHRALELTGNTEETAVGTPITALFPDEERETIADAVDDALRTGRTTITASLCLDSGQQQRYEFRAHSLTDLDNNTAGLVILGQDVS | not soluble
DITGIPSGFNDLDQKTSGFQPGDLIIVAGRPSMGKTAFALNIGEHVALETSKPVAVFSMEMGGVQLAMRMLGSIGRLDQHKMRTGQLNDDDWPRLTHALGKLNDAPIFIDESAGLNSLELRARARRLYRQHEGLGLIIIDYLQLMSATSPGSENRAAEISEISRSLKALAKELQVPVIALSQLNRGLEQRPNKRPIMSDL | not soluble
DKIGTAVLQGVMQGRRAKDVAKEIEQITDATASRATFIARDQTSKMNAAFNEIRQVGLGIESYTWQTSGDERVREDHAAHDGTVFRWSDPPATGHPGQDYNCRCVAIPNVTLEGP | not soluble
DLHEILHEAVPLDANEREILELKEDAFAQRRREIETRLRAANGKLADAIAKNPAWSPEVEAATQEVERAAGDLQRATLVHVFEMRAGLKPEHRPAYDRVLIDALRRGSQ | soluble
DPTKNLRSVDLAVVNEDEGATRNGEFNRYGDKVVKGLLDKDYLAFKQVSADEAAKGLDNGTYLFTVTIPEKFSENVNTLLADQPTKPEIILSYNDFNGTNGSVLTGGLVPKIQQAVSASISESYATKLVNGVNKLGGGLERAADGSAKLEEGSGKLKDGLAKGVAGSQKLNDGSHQLAEGTAKLADGTGQLADGASRLAAGTAKLGNGAAQIDDGVGTLVNTLIPVLTTAQAAAPQLQQAADALRAVGMVAEADRIQDLATKFDANNPDNQVNKLNKLKNGTATLRYMLSDPSSEYYGGVLKLSDGVAKAHDGAVRLNDGAHRLADGTAQLANGTQQLYDGAGRLNEGANTLATKLDEGAKNAPKVPNAEASAKQISVPIVYKENNANPVQTVVDSNDPTAKKLNGGAS | not soluble
DQRQAEKALLESEQKFRSFIETTSEGFLILTPQLDINFSNTAICQLAGYSLTEMQGKSVLVFVTSESRKQLRQQLIMARSHSHLAAELTLMHKNGHHVFIRYKATVMADGNGFFTYITDIT | not soluble
DRFSTAVLALSLFQGAYTAEIFRAGLNSIPKGQFEAAQTLGLSPFYTYKDVILPQVLQRTLPPLTNEVVSLIKNSSIVSVMAIFDLTTQARNIVSETAMPFE | not soluble
DSDCHFAEQRDFSSQWFRVDDGGEIPDEQELHWHLEYLQQNPNAARDLLHALLPDKDASQGDWRCSYRLLQSADLMPLVFDYRWLMNGQFAFYLVDSASQENGGVATTLLVRALFDDYLRNLKSFSADLKDMVNIMEKGIECSDCAGAVK | not soluble
DSQDWHDWIDQALTERRLLLYFQPVVDCLDTQRVLHHKVLARLLDPQATAIAAGRFLPWIERFGWAARMDLAMLEQSLEHLRRHPRPLALSLSAASVRNAQTFAPLLALLKAHPQEARQLTLELDERHLPAAAELERLSQVLRELGCGLGLQHFGGRFSLIGNLTHLGLAYLKLDGCYLHAVDREGDKRLFIEAVYRTTHSIDLPLIAEQVETLGELEVLREMGLRGAMGRLFGSPAPWSGDA | soluble
DTEGKAHNEQAESIELEGDRIYKITLKDGLKFSDGTPIKAENFVKTWNYAVANDQLNASFFEGIKGFKEGVKELEGLKVVDDKTFTVELDQPESDFPSRLGYSAFFALPDIAFDDMAAFGENPVSSGPYKLAEWNHNESLTIVPNEEYQGDRKAKNDGVKFVFYASQDAAYSDLLAGNLDVLDQVPDSAFATYKDELGDRAVNQPAAVFQSFTIPEKLEHFSGEEGALRRAAISHAINREEITKTIFQDTRTPAKDFSSPVVDGYKEGLKGSEVVKFDSAKAKELWAQADKISKFTGEFTIAYNSDGGHQSWVDAVANQLKNNLGIAASGKPYPDFKSLRDEVTNHTITGAFRTGWQGDYPLLGNFLQPLYATNASSNDGQYSNPAFDAKLEEAAGAKSVEEGLKLYQEAEEILFKDLPAIPLWYANVNGGSSDKVSNVTFNWKSVAAYEQITKG | not soluble
DTVANASGPLMVEIVKTPGSALGISLTTTSLRNKSVITIDRIKPASVVDRSGALHPGDHILSIDGTSMEHCSLLEATKLLASISEKVRLEILPVPQSQRPLRPS | soluble
DTVKIDANVNYQIIQGFGGMSGVGWINDLTTEQINTAYGSGVGQIGLSIMRVRIDPDSSKWNIQLPSARQAVSLGAKIMATPWSPPAYMKSNNSLINGGRLLPANYSAYTSHLLDFSKYMQTNGAPLYAISIQNEPDWKPDYESCEWSGDEFKSYLKSQGSKFGSLKVIVAESLGFNPALTDPVLKDSDASKYVSIIGGHLYGTTPKPYPLAQNAGKQLWMTEHYVDSKQSANNWTSAIEVGTELNASMVSNYSAYVWWYIRRSYGLLTEDGKVSKRGYVMSQYARFVRPGALRIQATENPQSNVHLTAYKNTDGKMVIVAVNTNDSDQMLSLNISNANVTKFEKYSTSASLNVEYGGSSQVDSSGKATVWLNPLSVTTFVSK | soluble
